Test results reported in US11160888B2, “PET tracer for imaging of neuroendocrine tumors” (priority 2011, dated 2021).

Assays:
[1] = human, in vivo
From the text: No additional radiochemical purification step was required. […] The mean administered activity was 207 6 10 MBq (range, 193-232 MBq). […] This side effect was probably due to the somatostatin analog contained in the tracer.

[2] = in vivo
neuroendocrine tumor = assay: Comparative lesion detection, 64Cu-DOTATATE PET versus 111In-DTPA-octreotide SPECT; type: in vivo, human
From the text: (§1) Fourteen consecutively enrolled patients participated in this pilot study and underwent PET scanning with the new tracer on several time points. Patients were eligible in case of a histopathologically confirmed neuroendocrine tumor including positive immunostainings for chromogranin A and synaptophysin. They got offered study inclusion in case of referral to conventional SRI as part of routine follow-up. The maximum allowed time interval between both imaging modalities was 60 days. According to local clinical routine there was no need for interruption of biotherapy e.g. withdrawal of long- or short-time acting somatostatin analogs. However, patients must not have undergone major surgical interventions or systemic chemotherapy between conventional SRI and the PET scanning. The study group consisted of thirteen patients with gastroenteropancreatic neuroendocrine tumors (2 foregut, 6 midgut, 5 NET of unknown origin) and one patient with a known mutation in the multiple endocrine neoplasia I gene, who was diagnosed with a bronchogenic NET ten years ago. Age ranged from 40-80 years. Gender distribution: four women, ten men. Ten of the tumors were active functioning causing classical carcinoid syndromes mainly due to hepatic tumor load. One patient had shown clinical and biochemical manifestations of a Zollinger-Ellison syndrome at time of diagnosis. Twelve patients were in advanced disease state—TNM stage IV according to most recently both UICC/AJCC and ENETS classifications. Two patients had undergone respectively R0- and R1-resections, both without detectable disease so far. Patient recruiting and follow-up was carried out at the Department of Abdominal Surgery C. SRI was performed at the Department of Clinical Physiology, Nuclear Medicine and PET. Both departments are part of the Neuroendocrine Tumor Center of Excellence, Rigshospitalet, University of Copenhagen, Denmark. All patients had given written informed consent prior to inclusion. The study was approved by the Danish Medicines Agency and the Regional Research Ethics Committee.
(§2) PET-CT images were acquired on an integrated PET-CT Siemens Biograph True X, multi-slice. […] Imaging was performed 1h, 3h and 24h after injection.
^111In-pentreotide was intravenously applied with a target dose of 200 MBq. The scans consisted of whole body planar scintigraphy and SPECT-CT: Planar images were acquired at 24 h (anterior and posterior whole-body scan, scan speed 5 cm/min, 512*1.024 matrix) and at 48 h (15 min static planar image (256*256 matrix) of the abdomen using a large field of view medium-energy collimator (Precedence 16-slice scanner, Philips Healthcare; VG Hawkeye, GE Healthcare). SPECT (20 sec/step, 128 angles, 128*128 matrix) over the abdomen was obtained at 24 or 48 h, and included also the chest if a pathological focus was suspected from the whole body scan. A low-dose CT was used as anatomical guide and for attenuation correction. SPECT and CT were fused and reviewed on dedicated workstations (EBW, Philips Healthcare; eNTEGRA, GE Healthcare).
Planar whole-body scans/SPECT-CT and PET-CT images were evaluated by two separate teams consisting of both a nuclear medicine physician and a radiologist. Both teams were briefed about the patients past medical history. When abnormal findings only detected on co-registered CT had led the attention to a specific anatomical site, this particular region was revaluated using the molecular imaging data. Judged visually, there also had to be clearly detectable lesion to be accounted as true SRI positive as this was the main focus of interest of the present study. However, all lesions were documented, whether identified on CT images or by SRI. Findings were reported according to their respective anatomical site and if possible absolute numbers of lesions per organ system.

somatostatin receptor = assay: 64Cu-DOTATATE PET biodistribution by SUV quantitation in neuroendocrine tumor patients
From the text: as §1, §2
(§3) Planar whole-body scans/SPECT-CT and PET-CT images were evaluated by two separate teams consisting of both a nuclear medicine physician and a radiologist. Both teams were briefed about the patients past medical history. When abnormal findings only detected on co-registered CT had led the attention to a specific anatomical site, this particular region was revaluated using the molecular imaging data. Judged visually, there also had to be clearly detectable lesion to be accounted as true SRI positive as this was the main focus of interest of the present study. However, all lesions were documented, whether identified on CT images or by SRI. Findings were reported according to their respective anatomical site and if possible absolute numbers of lesions per organ system. […] While still remaining blinded to the opposite SRI results, this disparity was tried to balance by additionally providing the team evaluating ^111In-pentreotide SPECT-CT scans with the findings from contrast enhanced diagnostic CT. Interpretation of conventional SRI was performed based on the knowledge of normal tissue accumulation of ^111In-pentreotide. Interpretation of the findings from the new PET method was carried out in a similar manner being aware of possible differences regarding residence times and excretion patterns of the new tracer. Confirmation of the pointed-out lesions was sought by routine follow-up including CT, MRI, conventional SRI and biopsy if possible. Newly detected lesions on co-registered CT imaging were accepted for confirmations as well. Semi-quantitative analysis of tissue radioactivity concentrations was performed by drawing volumes of interests (VOI) around detected lesions and encompassing normal tissues with appreciable tracer uptake on fused PET-CT images.

[3] = as above; conditions: both, human, pituitary, adrenals, spleen, iv, 200 MBq, total radioactivity
From the text: as §1, §2, §3

CC(O)[C@H](NC(=O)[C@@H]1CSSC[C@H](NC(=O)[C@@H](Cc2ccccc2)NC(=O)CN2CCN(CC(=O)O)CCN(CC(=O)O)CCN(CC(=O)O)CC2)C(=O)N[C@@H](Cc2ccc(O)cc2)C(=O)N[C@H](Cc2c[nH]c3ccccc23)C(=O)N[C@@H](CCCCN)C(=O)N[C@@H](C(C)O)C(=O)N1)C(=O)O (stereo partly shown) [64Cu-DOTATATE, metal not drawn]
adverse or clinically detectable pharmacologic effects [1]: no adverse or clinically detectable pharmacologic effects
changes in vital signs [1]: No significant changes
subjects who experienced self-limiting nausea [1]: 4 subjects
absorbed dose [2]: 0.19 mGy/MBq
estimated effective dose [2]: 6.3 mSv
image quality compared with SPECT with 111In-DTPA-octreotide (neuroendocrine tumor; PET): considerably better image quality
number of lymph node lesions revealed (neuroendocrine tumor; all 14 patients): 98
Number and localization of lesions detected (neuroendocrine tumor; patient no. 2): Negative
Number and localization of lesions detected (neuroendocrine tumor; patient no. 4): Negative
Number and localization of lesions detected (neuroendocrine tumor; patient no. 5): Lymph nodes (>30)
Number and localization of lesions detected (neuroendocrine tumor; patient no. 7): Pancreas (1), liver (>10) bones (>10)
Number and localization of lesions detected (neuroendocrine tumor; patient no. 10): Lymph nodes (10)
Number and localization of lesions detected (neuroendocrine tumor; patient no. 11): Liver (>10)
activity distribution on late scan (somatostatin receptor; 24 h after injection): activity washout from most organs and lesions
SUVmax range (somatostatin receptor; bone lesions, 1 h): 30-117
SUVmax range (somatostatin receptor; bone lesions, 3 h): 27-111
tracer accumulation category (high, moderate, faint) (somatostatin receptor; liver and spleen): Moderate to high
SUVmax range (somatostatin receptor; liver lesions, 1 h): 20-81
SUVmax range (somatostatin receptor; liver lesions, 3 h): 26-81
SUVmax range (somatostatin receptor; lymph nodes (lesions), 1 h): 9-110
SUVmax range (somatostatin receptor; lymph nodes (lesions), 3 h): 9-115
tracer accumulation category (high, moderate, faint) (somatostatin receptor; pituitary, adrenal glands, kidneys, renal pelvis, urinary bladder): High
tracer accumulation category (high, moderate, faint) (somatostatin receptor; salivary glands, in 12 of 14 patients): faint to moderate
tracer accumulation category (high, moderate, faint) (somatostatin receptor; thyroid gland, in 2 patients): moderate
SUV [3]: ≤ 20 SUV
